Key:
[1] = target: mouse melanocortin 1 receptor (mouse) (UniProt Q01727)
[2] = target: mouse melanocortin 4 receptor (mouse) (UniProt P56450)
Chain of UniProt P56450 (P56450 whole entry): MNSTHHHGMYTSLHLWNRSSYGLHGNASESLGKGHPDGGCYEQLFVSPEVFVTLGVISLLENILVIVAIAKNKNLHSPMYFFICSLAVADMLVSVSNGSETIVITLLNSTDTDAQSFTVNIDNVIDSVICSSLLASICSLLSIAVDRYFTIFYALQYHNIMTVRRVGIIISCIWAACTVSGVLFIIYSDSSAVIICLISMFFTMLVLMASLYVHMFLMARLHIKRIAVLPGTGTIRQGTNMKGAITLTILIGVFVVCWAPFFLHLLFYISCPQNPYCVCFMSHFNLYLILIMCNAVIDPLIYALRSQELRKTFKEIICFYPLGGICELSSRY

Chain of UniProt Q01727 (Q01727 whole entry): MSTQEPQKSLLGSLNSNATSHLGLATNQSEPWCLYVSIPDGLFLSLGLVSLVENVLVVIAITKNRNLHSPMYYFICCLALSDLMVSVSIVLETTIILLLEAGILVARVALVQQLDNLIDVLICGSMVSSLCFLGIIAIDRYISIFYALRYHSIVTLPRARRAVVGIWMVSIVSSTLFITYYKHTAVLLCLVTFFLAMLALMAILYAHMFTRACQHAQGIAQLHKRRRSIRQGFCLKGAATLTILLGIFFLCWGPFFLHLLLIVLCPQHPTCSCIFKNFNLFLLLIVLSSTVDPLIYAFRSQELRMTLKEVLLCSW

EC50 of cAMP production (EPAC BRET sensor), HEK293 cells expressing mMC1R, 3 min [1]: 4.8 nM
EC50 of cAMP production (EPAC BRET sensor), HEK293 cells expressing mMC4R, 3 min [2]: 11.5 nM
Substance: α-melanocyte-stimulating hormone (peptide)
